From paper doi:10.1101/2025.03.04.641466

Key:
[1] = target: EGFP-vinculin (UniProt P18206); assay: FRET or BRET
[2] = target: mTFP1-vinculin (UniProt P18206); assay: FRET or BRET

| FRET efficiency [1] | FRET efficiency [2] [%] | Substance |
| --- | --- | --- |
| 13.5 | – | RIAM-mScarlet (RIAM C-terminally tagged with mScarlet-I) (from UniProt Q7Z5R6 1-666) (natural protein) |
| 16.4 | 20 | mScarlet-RIAM (RIAM N-terminally tagged with mScarlet-I) (from UniProt Q7Z5R6 1-666) (natural protein) |
